Data as given in patent publication US20020031818A1, “Modification of Mdm2 activity” (priority 2000, published 2002).

Biological target: Mdm2 (Homo sapiens, UniProt Q00987)
Assay: Mdm2 sumoylation in EJ cells
Assay type: cell-based, mouse
Parameters: expressed in transfected cells; host or cells: EJ mouse fibroblasts (p19ARF null)
Settings: EJ cells (lack p19ARF), Flag-Mdm2 and p19ARF constructs 2 μg
Method: FIG. 13A-13E. A. Bacterially expressed and purified Mdm2 (1 μg) was incubated with ^32P-labeled Sumo-1, purified Aos1/Uba2 and Ubc9 (0.5 μg) for 60 min at 37° C. in conjugation buffer. For indicated time-periods in vitro translated wt or mutant p19^ARF ([…]) was added to the sumoylation reactions. Upper panel depicts the amount of Sumoylated Mdm2, lower panel reveal the level of Mdm2 and Sumo-Mdm2 in Coomassie blue gel. B. Bacterially expressed and purified Mdm2 (1 μg) was incubated with in vitro-translated ^35S-Sumo, purified Aos1/Uba2 and Ubc9 (0.5 μg) for 60 min at 37° C. in conjugation buffer in the presence of the increasing amounts of bacculovirus-expressed p19^ARF (0, 0.1, 0.5, 1 μg; lanes 1-4 respectively). Bead-bound complexes were washed before being denatured in 3× Sample Buffer. Proteins were separated on 8% SDS-PAGE. Gel was stained with Coomassie blue to verify equal Mdm2 input (lower panel), dried and exposed to X-ray film, which depicts SUMO-1 conjugation to Mdm2 in the presence of the indicated p19 forms (upper panel). […] (Left) Immunoprecipitated Mdm2 was detected using monoclonal Mdm2 antibodies (2A10, left). […] SUMO-conjugation to Mdm2 was detected using monoclonal antibodies to SUMO-1 (top). […]

Mdm2, sequence (Q00987 whole entry): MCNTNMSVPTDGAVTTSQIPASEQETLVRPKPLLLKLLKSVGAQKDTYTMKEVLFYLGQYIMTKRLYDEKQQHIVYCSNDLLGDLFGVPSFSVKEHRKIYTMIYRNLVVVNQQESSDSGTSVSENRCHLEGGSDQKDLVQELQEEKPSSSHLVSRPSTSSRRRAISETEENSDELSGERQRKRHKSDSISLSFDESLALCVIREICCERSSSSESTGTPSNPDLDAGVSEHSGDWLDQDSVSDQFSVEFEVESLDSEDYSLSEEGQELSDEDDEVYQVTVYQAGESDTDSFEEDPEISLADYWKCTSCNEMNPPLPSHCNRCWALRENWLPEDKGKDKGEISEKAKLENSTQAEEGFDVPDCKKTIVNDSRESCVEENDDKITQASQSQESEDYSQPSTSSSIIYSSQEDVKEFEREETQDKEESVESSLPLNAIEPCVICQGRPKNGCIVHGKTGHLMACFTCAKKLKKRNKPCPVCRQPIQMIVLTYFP

B1: p19^ARF: Mdm2-regulating protein; in vitro translated, bacculovirus-expressed or transfected (protein)
chain: MGRRFLVTVRIQRAGRPLQERVFLVKFVRSRRPRTASCALAFVNMLLRLERILRRGPHRNPGPGDDDGQRSRSSSSAQLRCRFELRGPHYLLPPGARRSAGRLPGHAGGAARVRGSAGCARCLGSPAARLGPRAGTSRHRAIFAFRWVLFVFRWVVFVYRWERRPDRRA
For B1, the “Mdm2 sumoylation in EJ cells upon co-expression” value was “inhibition of Mdm2 sumoylation”.
